# Data: FireProtDB (doi:10.1021/bi972395d)
# Where “and” joins values, the source holds several entries; their conditions need not be identical. Identical values can stand only once.
# B1: Superoxide dismutase [Mn], mitochondrial, P04179 (parent)
# chain: MLSRAVCGTSRQLAPVLGYLGSRQKHSLPDLPYDYGALEPHINAQIMQLHHSKHHAAYVNNLNVTEEKYQEALAKGDVTAQIALQPALKFNGGGHINHSIFWTNLSPNGGGEPKGELLEAIKRDFGSFDKFKEKLTAASVGVQGSGWGWLGFNKERGHLQIAACPNQDPLQGTTGLIPLLGIDVWEHAYYLQYKNVRPDYLKAIWNVINWENVTERYMACKK
# Variants of: B1
# Conditions: Homo sapiens; pH 7.8; 70 °C; Thermal; DSC; potassium phosphate 2 mM; transition: 2; reversible: Yes; structure 1N0J; whole UniProt chain shown
row,Variant,ddG of mutation (higher = less stable)
1,MLSRAVCGTSRQLAPVLGYLGSRQKHSLPDLPYDYGALEPHINAQIMQLHHSKHHAAYVNNLNVTEEKYQEALAKGDVTAQIALQPALKFNGGGHINHSIFWTNLSPNGGGEPKGELLEAIKRDFGSFDKFKEKLTAASVGVQGSGWGWLGFNKERGHLQIAACPNNDPLQGTTGLIPLLGIDVWEHAYYLQYKNVRPDYLKAIWNVINWENVTERYMACKK [Q167N],-2.79 kcal/mol

# Same assay, conditions: Homo sapiens; pH 7.8; 88.9 °C; Thermal; DSC; potassium phosphate 2 mM; transition: 2; reversible: Yes; structure 1N0J; whole UniProt chain shown
row,Variant,ddG of mutation (higher = less stable)
1,MLSRAVCGTSRQLAPVLGYLGSRQKHSLPDLPYDYGALEPHINAQIMQLHHSKHHAAYVNNLNVTEEKYQEALAKGDVTAQIALQPALKFNGGGHINHSIFWTNLSPNGGGEPKGELLEAIKRDFGSFDKFKEKLTAASVGVQGSGWGWLGFNKERGHLQIAACPNNDPLQGTTGLIPLLGIDVWEHAYYLQYKNVRPDYLKAIWNVINWENVTERYMACKK [Q167N],-0.06 kcal/mol

# Same assay, conditions: Homo sapiens; pH 7.8; Thermal; DSC; potassium phosphate 2 mM; transition: 2; reversible: Yes; structure 1N0J; whole UniProt chain shown
row,Variant,unfolding enthalpy (calorimetric)
1,MLSRAVCGTSRQLAPVLGYLGSRQKHSLPDLPYDYGALEPHINAQIMQLHHSKHHAAYVNNLNVTEEKYQEALAKGDVTAQIALQPALKFNGGGHINHSIFWTNLSPNGGGEPKGELLEAIKRDFGSFDKFKEKLTAASVGVQGSGWGWLGFNKERGHLQIAACPNNDPLQGTTGLIPLLGIDVWEHAYYLQYKNVRPDYLKAIWNVINWENVTERYMACKK [Q167N],100 kcal/mol and 78.3 kcal/mol
